Experimental data reported in patent US20180313827A1.

Columns and labels:
[1] = target: Ddx4_N1_1 (disordered N-terminus of Ddx4 protein, forming Ddx4N1 membraneless organelles / proteinaceous phase) (Homo sapiens (Human)) (UniProt Q9NQI0); experiment: confocal fluorescence microscopy, partitioning inside vs outside Ddx4N1 organelles in vitro; 5 µM, 150 mM NaCl
[2] = target: Ddx4_N1_1 (disordered N-terminus of Ddx4 protein, forming Ddx4N1 membraneless organelles / proteinaceous phase) (Homo sapiens (Human)) (UniProt Q9NQI0); experiment: confocal fluorescence microscopy, partitioning inside vs outside Ddx4N1 organelles in vitro; 11.8 µM, 175 mM NaCl

Chain of UniProt Q9NQI0 (Q9NQI0 other isoform, or with tags, fused parts or gaps limits assumed): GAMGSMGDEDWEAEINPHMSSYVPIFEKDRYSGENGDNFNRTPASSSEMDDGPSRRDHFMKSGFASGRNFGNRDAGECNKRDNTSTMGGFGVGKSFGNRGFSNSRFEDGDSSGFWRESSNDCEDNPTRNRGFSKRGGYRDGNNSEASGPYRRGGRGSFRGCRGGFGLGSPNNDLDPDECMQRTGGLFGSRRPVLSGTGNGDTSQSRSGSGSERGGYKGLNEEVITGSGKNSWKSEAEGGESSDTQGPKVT

Substance	ΔGpart (partition free energy into Ddx4N1 organelles) [1] [kJmol^-1]	ΔGpart (partition free energy into Ddx4N1 organelles) [2] [kJmol^-1]
GFP^-30 (acidic GFP, -30 surface charge)	1.6	
aB_GFP (alphaB-crystallin fused to GFP, oligomer)		-7.8
